Laboratory results: paper PMC4023160, “Head-to-tail interactions of the coiled-coil domains regulate ClpB activity and cooperation with Hsp70 in protein disaggregation” (eLife, 2014)

B1: ND truncation of E. coli ClpB (residues 159 to 858; E279A/E432A/E678A), SeMet (domain or fragment)
chain: not shown
modifications: selenomethionine (SeMet)
notes: ClpB of E. coli, residues 159 to 858, without the N-terminal domain; One molecule in the asymmetric unit (P65); monomers form a spiral assembly in the crystal; also called ClpB E279A/E432A/E678A (SeMet) + ATP; E. coli ClpB-E432A (crystal structure); source: purified (Ni-IDA, size exclusion chromatography Superdex S200)
B2: ClpB-Q427W-Q502C-IAEDANS in the tryptophan-free ClpB-W462Y/W543L variant (natural protein)
chain: not shown
modifications: IAEDANS on the cysteine at 502 (Q502C), labelled with efficiencies of 70-80%
notes: ClpB of E. coli; also called wild type ClpB (FRET pair); source: purified (Ni-IDA, size exclusion chromatography Superdex S200); labelled with 1,5-IAEDANS
B3: ClpB-Q427W-Q502C-IAEDANS (W462Y/W543L) with E432A (natural protein)
chain: not shown
modifications: IAEDANS on the cysteine at 502 (Q502C), labelled with efficiencies of 70-80%
notes: ClpB of E. coli; also called E432A (FRET pair); source: purified (Ni-IDA, size exclusion chromatography Superdex S200); labelled with 1,5-IAEDANS
B4: ClpB-K431C-S499C repressed (E432A) variant (natural protein)
chain: not shown
notes: ClpB of E. coli; source: purified (Ni-IDA, size exclusion chromatography Superdex S200); dialyzed to remove DTT
B5: ClpB-K431C-S499C hyperactive (Y503D) variant (natural protein)
chain: not shown
notes: as for B4
B6: ClpP protease (enzyme)
chain: not shown
notes: ClpP protease; source: purified as described previously (Oguchi et al., 2012); copies: 14

Columns and labels:
[1] = target: the molecule itself; assay: crystal structure; SeMet protein with ATP (ADP bound), space group P65, one molecule in the asymmetric unit, 3.50 Å
[2] = target: the molecule itself; assay: FRET or BRET; Trp (Q427W, donor) to IAEDANS (Q502C, acceptor) between adjacent subunits; low salt buffer A (50 mM Tris pH 7.5, 5 mM MgCl2, 20 mM KCl, 2 mM DTT) without or with 2 mM ATP, 25°C, excitation 290 nm
[3] = target: the molecule itself; assay: cross-linking; disulfide cross-linking: 4 μM ClpB cysteine variant, 25 μM Cu-Phenanthroline, 1 min at room temperature; non-reducing SDS gradient gel (3-8%)
[4] = target: the molecule itself; assay: negative-stain EM single-particle reconstruction; BAP(HAP)-ClpP complexes formed in 20 mM Tris-HCl pH 7.5, 20 mM KCl, 15 mM MgCl2, 1 mM DTT, 2 mM ATPγS; stained with 2% uranyl acetate; side views of 2:2 complexes cut into 1:1 halves; sixfold symmetry imposed or none

Protein	binding result [2]	binding result [3]	also measured
B1			binding result [1]: binds
B2	binds		
B3	binds		
B4		binds	
B5		binds	
B6			stoichiometry N [4]: 14
